Here are results for 2 molecules from patent US20260250420A1 (SICHUAN KELUN BIOTECH BIOPHARMACEUTICAL, published 2026).

Test [1] addresses T1, mouse PTK7 protein (extracellular sequence of mouse PTK7 with C-terminal 6×His tag) (mouse, UniProt Q8BKG3 23-696).
T1 construct: extracellular domain; Expressed transiently in HEK293 cells
T1 sequence: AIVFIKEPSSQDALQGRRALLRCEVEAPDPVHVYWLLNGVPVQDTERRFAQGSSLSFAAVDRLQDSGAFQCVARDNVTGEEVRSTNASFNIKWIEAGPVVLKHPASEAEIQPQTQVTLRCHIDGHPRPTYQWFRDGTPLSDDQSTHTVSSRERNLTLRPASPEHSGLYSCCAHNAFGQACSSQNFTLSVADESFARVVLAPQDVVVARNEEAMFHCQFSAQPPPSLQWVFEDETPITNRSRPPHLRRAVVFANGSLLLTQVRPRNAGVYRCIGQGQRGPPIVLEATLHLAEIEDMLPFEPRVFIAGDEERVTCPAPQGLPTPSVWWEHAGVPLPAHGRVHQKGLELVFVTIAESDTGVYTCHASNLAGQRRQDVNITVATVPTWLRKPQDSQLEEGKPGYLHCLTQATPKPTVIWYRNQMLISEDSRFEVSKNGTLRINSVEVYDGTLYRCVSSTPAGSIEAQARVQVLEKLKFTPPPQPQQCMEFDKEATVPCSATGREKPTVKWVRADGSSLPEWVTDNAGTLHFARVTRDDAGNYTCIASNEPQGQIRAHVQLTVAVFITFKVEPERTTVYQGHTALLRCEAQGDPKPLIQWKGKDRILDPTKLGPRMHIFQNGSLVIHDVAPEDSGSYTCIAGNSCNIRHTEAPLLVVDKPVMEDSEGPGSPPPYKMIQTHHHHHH
Description: BLI (ForteBio), antibody on Protein A sensor. An excerpt:
The dynamic affinity of the control Hu24 and candidate antibodies 64A10HZ, 101A6HZ, 4E12HZ and 19C2HZ with human PTK7-His was detected by using ForteBio (Pall life sciences).
ELISA and ForteBio were adopted to detect binding of the anti-human PTK7 chimeric and humanized antibodies to the monkey, mouse and rat PTK7 proteins.

For test [2], the target named is T2, human PTK7 on cells (tumor cells endogenously expressing PTK7); CHO-hPTK7, CHO-S-hPTK7 and 293T-hPTK7 … (human, UniProt Q13308 31-1070).
T2 sequence (looked up): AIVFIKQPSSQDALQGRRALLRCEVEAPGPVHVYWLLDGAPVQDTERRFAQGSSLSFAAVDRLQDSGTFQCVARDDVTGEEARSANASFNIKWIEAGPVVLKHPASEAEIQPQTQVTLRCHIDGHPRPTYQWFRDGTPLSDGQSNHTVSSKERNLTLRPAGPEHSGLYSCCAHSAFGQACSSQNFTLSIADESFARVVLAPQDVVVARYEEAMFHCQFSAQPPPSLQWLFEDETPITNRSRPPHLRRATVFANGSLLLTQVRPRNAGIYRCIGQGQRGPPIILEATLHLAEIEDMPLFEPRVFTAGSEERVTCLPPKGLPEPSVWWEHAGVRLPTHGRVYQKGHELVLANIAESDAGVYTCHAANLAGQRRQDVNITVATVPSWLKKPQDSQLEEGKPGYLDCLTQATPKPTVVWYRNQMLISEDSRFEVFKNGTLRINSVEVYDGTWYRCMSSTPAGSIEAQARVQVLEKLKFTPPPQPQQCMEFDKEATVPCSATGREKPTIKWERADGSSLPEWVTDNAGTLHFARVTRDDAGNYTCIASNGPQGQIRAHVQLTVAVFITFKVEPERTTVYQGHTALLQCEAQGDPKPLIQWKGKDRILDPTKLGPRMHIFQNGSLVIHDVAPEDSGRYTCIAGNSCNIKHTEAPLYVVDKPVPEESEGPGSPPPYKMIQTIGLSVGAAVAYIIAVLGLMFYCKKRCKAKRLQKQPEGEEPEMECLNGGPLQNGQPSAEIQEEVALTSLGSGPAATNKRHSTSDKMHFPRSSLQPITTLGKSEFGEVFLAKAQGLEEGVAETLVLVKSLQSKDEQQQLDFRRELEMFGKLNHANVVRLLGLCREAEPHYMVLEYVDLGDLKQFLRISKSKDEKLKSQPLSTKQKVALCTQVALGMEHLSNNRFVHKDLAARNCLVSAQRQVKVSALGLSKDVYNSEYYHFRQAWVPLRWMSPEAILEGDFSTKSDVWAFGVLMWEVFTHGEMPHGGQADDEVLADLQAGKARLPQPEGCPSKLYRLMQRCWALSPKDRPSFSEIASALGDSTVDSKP
Description: cell-based or functional assay.

B1: 101A6HZ (anti-human PTK7 humanized antibody) (antibody, human IgG1, kappa)
heavy: not shown
light: DIVMTQSPDSLAVSLGERATINCKASQDVGSAVIWYQQKPGQSPKLLIYWASTRHTGVPDRFSGSGSGTDFTLTISSLQAEDVAVYYCQQYSSYPLTFGQGTKLEIKRTVAAPSVFIFPPSDEQLKSGTASVVCLLNNFYPREAKVQWKVDNALQSGNSQESVTEQDSKDSTYSLSSTLTLSKADYEKHKVYACEVTHQGLSSPVTKSFNRGEC
Take B1: the binding result in test [1] is given as “no binding”.

B2: Hu24 (PTK7 control antibody, taken from Hu24 in the Patent CN201580030255) (antibody)
chain 1: QVQLVQSGPEVKKPGASVKVSCKASGYTFTDYAVHWVRQAPGKRLEWIGVISTYNDYTYNNQDFKGRVTMTRDTSASTAYMELSRLRSEDTAVYYCARGNSYFYALDYWGQGTSVTVSS
chain 2: EIVLTQSPATLSLSPGERATLSCRASESVDSYGKSFMHWYQQKPGQAPRLLIYRASNLESGIPARFSGSGSGTDFTLTISSLEPEDFAVYYCQQSNEDPWTFGGGTKLEIK
B2: in test [2], the “Cell endocytosis, EC50, A431 cells” value amounted to 0.0743 µg/mL; the “Cell endocytosis, EC50, HCC1806 cells” value was determined as 0.0659 µg/mL; the “Cell endocytosis, EC50, NCI-H358 cells” value is 0.0708 µg/mL; the “Cell endocytosis, EC50, OVCAR3 cells” value worked out at 0.101 µg/mL.
